This note sets out measurements from patent US20220064331A1 (Genentech, published 2022).

One experiment concerns the target T1, hKLB-ECD-HIS protein (human, UniProt Q86Z14 53-996).
T1 construct: recombinant hKLB-ECD-HIS protein (R&D Systems); also called recombinant KLB-ECD protein; not shown: HIS tag
In words: ELISA on hKLB-ECD-HIS protein, chimeric IgG (murine variable, hIgG1 constant regions), OD450. The source says: In addition, some of the antibodies were ranked by ELISA. For these experiments, anti-KLB antibodies that were chimeric recombinant IgG with murine variable regions and hIgG1 constant regions were used to measure binding to hKLB-ECD-HIS protein.

The target in experiment [1] is T2, human KLB expressed on cells (human, UniProt Q86Z14 53-1044).
T2 construct: on transfected 293 / HEK293 cells; also called hKLB; beta-Klotho
In words: FACS on cells expressing hKLB, hKLA and chimeras; domain of hKLB recognized.

B1: 8E1 (antibody, V domains shown)
VH: EVQLQQSGAELVKPGASVKLSCTAADFNIKDTYMHWVKQRPEQGLEWIGRIDPSNGNAKYDPKFQGKASITADSSSNTAYLHLSSLTSEDTAVYYCASRALGNGYALGYWGQGTSVTVSS
VL: DIQMTQSSSYLSVSLGGSVTITCKASDHINNWLAWYQQKPGNAPRLLIYGTTNLETGVPSRFSGSGSGRDYILSITSLQSEDVASYYCQQYWNTPFTFGSGTKLEIK
notes: murine hybridoma-derived anti-KLB antibody
On to B1, for which, in the experiment with hKLB-ECD-HIS protein, the binding result is “binds”.

B2: 11F1 (antibody, V domains shown)
VH: EVQLVESGGGLVKPGGSLKLSCAPSGFTFSSYGISWVRQTPEKRLEWVATVSSGGRYTYYPDSVKGRFTISRDNAENTLYLQMSSLRSEDTAMYYCTRGGDGYALDYWGQGTSVTVSS
VL: DIQMTQTTSSLSASLGDRVTIICSASQVISNYLNWYQQKPDGTVKLLIYFTSSLRSGVPSRFSGSGSGTDYSLTISNLEPEDVATYFCQQYSKLPWTFGGGTKLELK
notes: as for B1
In the case of B2, the binding result (with hKLB-ECD-HIS protein; in experiment [1]) was “binds” in each case.

B3: 14E6 (antibody, V domains shown)
VH: EVPLQQSGPELVKPGATVKISCKPSGDTFTEYTMNWVRQSHGKSLEWIGGINPNNGETSYNQKFKGKATLTVDKSSSTAFMDLRILTSEDSAVYFCARKTTNYWGQGTTLIVSS
VL: DIQMTQSPSSLSASLGERVSLTCRASQEISGYLSWLQQKPDGTIKRLIYAASTLDSGVPRRFSGSRSGSDYSLTISSLESEDFADYYCLQYGSYPWTFGGGTKLELK
notes: as for B1
With B3, the binding result (in the experiment with hKLB-ECD-HIS protein; in experiment [1]) was “binds” each time.

B4: 8C5 (antibody, V domains shown)
VH: QVQLKQSGPGLVQPSQSLSVACTVSDFSLTTYGVHWVRQSPGKGLEWLGVIWSGGSTDYNAAFISRLTISKDNSKSQVFFKMNSLQTTDTAIYYCARDYGSTYVDAIDYWGQGTSVTVSS
VL: DIVLTQSPTSLAVSLGQRATISCRASESVESYGNRYMTWYQQKPGQPPKLLIYRAANLQSGIPARFSGSGSRTDFTLTIDPVEADDVATYYCQQSNEDPWTFGGGTKVEIK
notes: murine hybridoma-derived anti-KLB antibody; also called KLBmAb1
Take B4: in the experiment with hKLB-ECD-HIS protein, the binding result is “binds”.

B5: 21H3 (antibody, V domains shown)
VH: QVQLQQPGAEIVKPGASVRLSCKASGYSFTSYWIHWVKQRPGQGLEWIGEIDPSVSNSNYNQKFKGKATLTADKSSSTAYMQLSGLTSEDSAVYFCVRLGVMVYGSSPFWFAYWGQGTLVTVSA
VL: DIVMTQSQKFMSTSVGDRVSITCKASQFVSDAVAWYQQKPGQSPKLLICSASYRYTGVPDRFTGSGSGTDFTFTISSVRTEDLAVYYCQQHYIVPYTFGGGTTLEIE
notes: as for B1
For the molecule B5, in experiment [1], the binding result was “binds”.

B6: 46C3 (antibody, V domains shown)
VH: EVQLQQSGAELVKPGASVKLSCTASDFNIIDTYIHWVKQRPEQGLEWIGRIDPANGNTKYDPKFQDKAALTSDTDSNTAYLLFNSLTSEDTAVYYCARGTSYSWFAYWGQGTLVSVSA
VL: AVLMTQTPLSLPVSLGDQASISCRSSQNIVHSDGNTYLEWYLQKPGQSPKLLIYKVSNRFSGVPDRFSGSGSGRDFTLKISRVEAGDLGVYYCFQGSHVLTFGAGTRLELK
notes: as for B1
On to B6, for which the binding result in experiment [1] is recorded as “binds”.
